Assay results reported in patent US20240158497A1 (published 2024).

T1: full length (FL) human gp130 over-expressed on HEK293/Stat3-luc/gp130-2X Sort cells (human, UniProt P40189 23-918)
T1 sequence: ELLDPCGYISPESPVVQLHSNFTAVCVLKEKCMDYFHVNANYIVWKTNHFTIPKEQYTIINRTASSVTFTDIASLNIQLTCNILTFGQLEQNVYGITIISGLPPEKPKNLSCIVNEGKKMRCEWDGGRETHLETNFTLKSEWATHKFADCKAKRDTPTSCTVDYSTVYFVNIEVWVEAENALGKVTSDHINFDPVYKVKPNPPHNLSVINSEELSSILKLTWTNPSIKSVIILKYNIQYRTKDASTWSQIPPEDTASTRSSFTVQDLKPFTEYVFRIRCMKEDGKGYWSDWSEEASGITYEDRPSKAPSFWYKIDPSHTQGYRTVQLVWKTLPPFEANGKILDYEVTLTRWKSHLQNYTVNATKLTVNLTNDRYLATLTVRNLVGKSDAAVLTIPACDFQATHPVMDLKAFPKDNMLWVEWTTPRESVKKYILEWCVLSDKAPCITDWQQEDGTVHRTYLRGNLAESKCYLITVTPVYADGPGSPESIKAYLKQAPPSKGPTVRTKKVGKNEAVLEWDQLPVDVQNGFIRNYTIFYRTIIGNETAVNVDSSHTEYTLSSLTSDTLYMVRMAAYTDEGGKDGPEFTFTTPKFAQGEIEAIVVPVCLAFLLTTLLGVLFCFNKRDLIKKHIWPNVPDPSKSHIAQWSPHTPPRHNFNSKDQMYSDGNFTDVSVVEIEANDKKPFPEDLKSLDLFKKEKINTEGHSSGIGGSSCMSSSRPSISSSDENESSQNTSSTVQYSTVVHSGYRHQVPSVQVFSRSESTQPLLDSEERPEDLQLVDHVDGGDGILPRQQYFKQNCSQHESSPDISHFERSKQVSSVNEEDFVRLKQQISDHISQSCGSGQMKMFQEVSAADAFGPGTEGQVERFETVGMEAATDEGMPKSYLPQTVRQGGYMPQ

T2: human gp130 expressed endogenously on IMR-32/Stat3-luc cells (human, UniProt P40189 23-918)
T2 sequence: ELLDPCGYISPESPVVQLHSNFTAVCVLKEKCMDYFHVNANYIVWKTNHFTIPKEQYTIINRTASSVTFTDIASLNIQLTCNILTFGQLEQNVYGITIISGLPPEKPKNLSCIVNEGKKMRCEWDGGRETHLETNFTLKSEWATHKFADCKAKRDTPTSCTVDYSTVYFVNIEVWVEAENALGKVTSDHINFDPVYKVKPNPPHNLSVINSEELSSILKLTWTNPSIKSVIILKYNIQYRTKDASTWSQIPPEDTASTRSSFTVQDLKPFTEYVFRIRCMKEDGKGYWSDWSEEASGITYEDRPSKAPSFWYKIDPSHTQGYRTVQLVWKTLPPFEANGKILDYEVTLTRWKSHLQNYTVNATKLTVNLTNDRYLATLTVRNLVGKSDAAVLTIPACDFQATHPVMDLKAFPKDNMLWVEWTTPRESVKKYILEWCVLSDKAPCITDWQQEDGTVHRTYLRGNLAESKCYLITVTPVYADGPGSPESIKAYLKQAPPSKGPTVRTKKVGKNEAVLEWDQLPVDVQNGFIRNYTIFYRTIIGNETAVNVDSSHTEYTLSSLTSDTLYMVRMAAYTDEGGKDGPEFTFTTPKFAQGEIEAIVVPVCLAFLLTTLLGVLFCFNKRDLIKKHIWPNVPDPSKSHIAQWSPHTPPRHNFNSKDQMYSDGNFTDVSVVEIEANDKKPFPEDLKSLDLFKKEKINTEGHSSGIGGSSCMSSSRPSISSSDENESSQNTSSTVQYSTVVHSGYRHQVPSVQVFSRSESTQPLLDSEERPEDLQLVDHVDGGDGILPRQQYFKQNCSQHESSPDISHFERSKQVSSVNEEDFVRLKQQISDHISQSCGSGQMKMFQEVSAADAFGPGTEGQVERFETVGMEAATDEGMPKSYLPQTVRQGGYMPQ

B1: MAb16673 (antibody, V domains shown)
VH: EVQLVQSGAEVKKPGESLKISCKGSGYSFTSYWIDWVRQMPGKGLEWMGIIYPDDSDTRYSPSFQGQVTMSVDKSISTAYLQWSSLKASDTAIYYCARHERGIVEAGTDYYYYYGMDVWGQGTTVTVSS
VL: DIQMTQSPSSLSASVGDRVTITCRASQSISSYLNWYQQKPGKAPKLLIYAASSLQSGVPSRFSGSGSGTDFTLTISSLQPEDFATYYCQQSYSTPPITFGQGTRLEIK
notes: hIgG4 isotype control used
B2: MAb16666 (antibody, V domains shown)
VH: EVQLVESGGGLVQSGGSLRLSCAASGFTFSRYEMNWVRQAPGKGLEWVAYISNTGTTRDYSDSVKGRFTISRDNAKNSLYLQMSSLRVEDTAVYYCVREKFSGTSDWFDPWGQGTLVTVSS
VL: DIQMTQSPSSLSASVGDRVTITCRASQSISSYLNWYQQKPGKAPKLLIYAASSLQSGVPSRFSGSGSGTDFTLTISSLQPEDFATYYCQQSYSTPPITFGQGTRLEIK
notes: hIgG4 isotype control used
B3: MAb16623 (antibody, V domains shown)
VH: EVQLVESGGGLVQPGGSLRLSCAASGLTFSSYEMNWVRQAPGKGLEWVSHISSAGSTKYYADSVKGRFTISRDNAKNSLFLQMNSLRAEDTAIYYCAGYNYAYYYFGVDVWGQGTTVTVSS
VL: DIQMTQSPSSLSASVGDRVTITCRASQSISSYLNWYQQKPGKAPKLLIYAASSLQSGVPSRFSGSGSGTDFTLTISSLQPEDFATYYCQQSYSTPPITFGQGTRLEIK
notes: hIgG4 isotype control used
B4: MAb16676 (antibody, V domains shown)
VH: QVQLVQSGAEVMKPGASVKVSCRASGYTFSSYDINWVRQAPGQGLEWMGWISTATGNTNYPQKVQGRVTMTTDTSTNTAYMELRSLRSDDTAVYYCTREGNSKGWLDPWGQGTLVTVSS
VL: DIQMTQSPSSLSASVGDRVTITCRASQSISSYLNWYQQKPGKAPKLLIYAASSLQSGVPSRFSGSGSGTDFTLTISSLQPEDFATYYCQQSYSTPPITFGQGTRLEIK
notes: hIgG4 isotype control used
B5: MAb16656 (antibody, V domains shown)
VH: EVQLVESGGGLVQPGRSLRLSCAASGFTLDDFAMHWVRQAPGKGLEWVSGISWNSGNIGYADSVKGRFTISRDNARNSLYLQMNSLRAEDTALYYCTSGYYLYYAMDVWGQGTTVTVSS
VL: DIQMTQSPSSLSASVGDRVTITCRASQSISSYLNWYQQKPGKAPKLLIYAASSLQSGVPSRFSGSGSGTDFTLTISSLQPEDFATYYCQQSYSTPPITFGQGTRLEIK
notes: hIgG4 isotype control used
B6: MAb16636 (antibody, V domains shown)
VH: QLQLQESGPGLVKPSETLSLICTVSGGSISSNNYYWGWIRQPPGKGLEWIGNLYGSGSTYYNPSLKSRVTISVDTSKNQFSLKLSFVTAADTAVYHCARWDTNGGAFDIWGQGTMVTVSS
VL: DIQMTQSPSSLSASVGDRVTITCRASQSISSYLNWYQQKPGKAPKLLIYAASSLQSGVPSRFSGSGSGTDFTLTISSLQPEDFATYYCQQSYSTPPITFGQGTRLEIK
notes: hIgG4 isotype control used
B7: MAb16682 (antibody, V domains shown)
VH: EVQLVESGGGLVQPGGSLRLSCAASGFTFSTYWMNWVRQAPGKGLEWVANIKEDGSEKYYVDSVKGRFTISRDNAKNSLYLQMNSLRAEDTAVYYCAREGFGVVTYIWGQGTMVTVSS
VL: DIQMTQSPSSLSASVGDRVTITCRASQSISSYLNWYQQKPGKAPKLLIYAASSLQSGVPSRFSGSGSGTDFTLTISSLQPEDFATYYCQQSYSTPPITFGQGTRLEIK
notes: hIgG4 isotype control used
B8: MAb16622 (antibody, V domains shown)
VH: EVQLVESGGGVVRPGGSLRLSCTASGFTFDDYGMSWVRQAPGKGLEWVSGINWNGGRTEYADAVKGRFIISRDNAKNSLYLQMNSLRAEDTALYFCARTELRWDYWGQGTLVTVSS
VL: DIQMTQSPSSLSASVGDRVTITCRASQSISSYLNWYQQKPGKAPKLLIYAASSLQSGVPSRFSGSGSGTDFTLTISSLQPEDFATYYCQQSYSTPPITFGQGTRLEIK
notes: hIgG4 isotype control used
B9: MAb16662 (antibody, V domains shown)
VH: EVQLVESGGGLVQPGGSLRLSCTASGFTFSNYAIFWVRQAPGKGLEYVSGISNNGVTKYYADSVRDRFTISRDNSRNTVSIQMDSLRTEDMAVYYCARENWGSDDGFDIWGQGTMVTVSS
VL: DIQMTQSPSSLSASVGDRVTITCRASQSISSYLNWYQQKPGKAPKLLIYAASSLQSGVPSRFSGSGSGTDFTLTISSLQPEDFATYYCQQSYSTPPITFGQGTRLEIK
notes: hIgG4 isotype control used
B10: MAb16659 (antibody, V domains shown)
VH: QVQLVQSGPEVKKPGSSVKVSCKASGGTIDRNEITWVRQAPGQGLEWMGVIIPILGEAHYERKFQGRLTITMDESTSTAYMELSNLRSEDTAVYYCARERAARGYLDYWGQGTLVTVSS
VL: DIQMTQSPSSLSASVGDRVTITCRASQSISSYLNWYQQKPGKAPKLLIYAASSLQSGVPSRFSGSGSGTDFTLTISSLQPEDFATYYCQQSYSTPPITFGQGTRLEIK
notes: hIgG4 isotype control used
B11: MAb16664 (antibody, V domains shown)
VH: QVQLVQSGTEVKKPGSSVKVSCKASGGTFSTYPINWVRQAPGQGLEWMGGIIPIFGTASYAQKFQGRVAITTDESTSTAYMELNSLRSEDTAVYYCARERPNWGSNDYWGQGTLVTVSS
VL: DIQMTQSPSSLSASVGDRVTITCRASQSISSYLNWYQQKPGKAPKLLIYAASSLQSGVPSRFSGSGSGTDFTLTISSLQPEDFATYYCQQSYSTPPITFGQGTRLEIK
notes: hIgG4 isotype control used
B12: MAb16637 (antibody, V domains shown)
VH: QVQLVQSGAEVKKPGASVKVSCKASGYTFTSLGISWVRQAPGQGLEWMGWISAYSGNRDYAQKFQGRVTMTTDTSTSTAYMELRSLRSDDTAVYYCARSLRFDYWGQGTLVTVSS
VL: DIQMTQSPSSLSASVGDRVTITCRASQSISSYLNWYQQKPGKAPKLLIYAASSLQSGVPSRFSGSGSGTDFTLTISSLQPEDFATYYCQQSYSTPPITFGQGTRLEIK
notes: hIgG4 isotype control used
B13: MAb16618 (antibody, V domains shown)
VH: QVQLQESGPGLVKPSETLSLTCTVSGGSISNYYWTWIRQPPGKGLEWIGHISNSGTTNYNPSLKSRVTISVDTSKNQFSLKLTSVTAADTAVYYCARLPLGIAAVDTDYYYYFGMDVWGQGTTVTVSS
VL: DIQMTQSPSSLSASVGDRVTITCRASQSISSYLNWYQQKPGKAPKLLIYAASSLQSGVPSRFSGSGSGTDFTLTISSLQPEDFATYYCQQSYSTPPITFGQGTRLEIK
notes: hIgG4 isotype control used
B14: MAb16683 (antibody, V domains shown)
VH: QVQLVESGGGLVKPGGSLRLSCAASGFTFSDYYMTWIRQTPGKGLDWVSYISSSGTNKYNADSVKGRFTISRDNAKNSLYLQMNSLRAEDTAVYYCVRDPPWGMDVWGQGTTVTVSS
VL: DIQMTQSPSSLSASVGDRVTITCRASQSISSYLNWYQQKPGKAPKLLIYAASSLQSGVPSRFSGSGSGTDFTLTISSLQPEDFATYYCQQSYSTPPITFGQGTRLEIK
notes: hIgG4 isotype control used
B15: MAb16665 (antibody, V domains shown)
VH: QVQLVESGGGVVQPGRSLRLACAASGFTFRSYGMHWVRQAPGKGLEWVAVIWYDGSNKYYTDSVKGRFTISRDNSKNTLYLQMNSLRAEDTAMYYCAIDKWATVTTYLFDYWGQGTLVTVSS
VL: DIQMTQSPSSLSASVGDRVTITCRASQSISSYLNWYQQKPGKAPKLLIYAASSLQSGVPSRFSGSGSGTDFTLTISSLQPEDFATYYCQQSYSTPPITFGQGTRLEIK
notes: hIgG4 isotype control used
B16: MAb16669 (antibody, V domains shown)
VH: EVQLVESGGGLVQPGGSLRLSCAASGFTFSSYAMNWVRQAPGKGLEWVSAISGSGDSTYYTDSVKGRFTISRDNSKNTLYLQMNTLRAEDTAVYYCAKEEIVMLVGATPGWFDPWGQGTLVTVSS
VL: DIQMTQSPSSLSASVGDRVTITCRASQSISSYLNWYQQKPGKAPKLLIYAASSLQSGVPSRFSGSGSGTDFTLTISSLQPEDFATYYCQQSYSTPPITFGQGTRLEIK
notes: hIgG4 isotype control used
B17: MAb16614 (antibody, V domains shown)
VH: QVQLVESGGGVVQPGGSLRLSCAASGFTFSTYDIHWVRQAPGKGLEWVAVISFDGSNRNYGDSVKGRFTISRDNSDNTLFLEMNNLRFEDTAVYYCAKEGYGVDFQHWGQGTLVTVSS
VL: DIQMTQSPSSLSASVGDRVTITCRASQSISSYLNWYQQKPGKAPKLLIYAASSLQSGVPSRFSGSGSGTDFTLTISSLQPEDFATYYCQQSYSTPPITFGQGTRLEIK
notes: hIgG4 isotype control used

Tests used:
[1] = biological target: T1, full length (FL) human gp130 …; assay: FACS, 10 nM Ab, HEK293/Stat3-luc/gp130-2X Sort cells
Description: (§1) In order to assess cell binding by anti-GP130 antibodies of the invention two cell lines were generated. One cell line generated was HEK293 cells stably over-expressing full length (FL) human gp130 (amino acids 1-918 of accession #P40189 with leucine at position 2 changed to valine, a natural variant) along with a luciferase reporter (Stat3-luciferase, Stat3-luc, SA Bioscience, #CLS-6028L). The cells were sorted twice using flow cytometry for high expression of gp130. It is known hereafter as HEK293/Stat3-luc/gp130-2 X Sort. IMR-32 cells (human Neuroblastoma, ATCC), were also evaluated for cell binding as these cells express gp130 endogenously and were used for bioassays. The cells used for binding were generated to stably express a luciferase reporter (Stat3-luciferase, Stat3-luc, SA Bioscience, #CLS-6028L), and are referred to hereafter as IMR-32/STAT3-Luc cells.
(§2) For the FACS analysis, 10 nM of the antibodies were used to stain 0.5×10⁶ cells/well of each cell type at 4° C. in PBS (without calcium and magnesium) containing 2% FBS for 30 minutes. IMR-32/STAT3-luc cells were incubated with 1 mg/mL mouse IgG for 30 minutes at 4° C. to block Fc receptors prior to adding the antibodies. To test whether the anti-gp130 antibody binding is specific for gp130 on the IMR-32 cells, antibodies were added to IMR-32/Stat3-luc cells with or without being pre-bound to 1000 nM of recombinant protein of the ecto-domain of human gp130 fused to myc-myc-his tag (hgp130.mmh) for 30 minutes at 25° C. […] Cells were fixed using BD CytoFix™ (Becton Dickinson, #554655) and analyzed on an IQue® (Intellicyt®) Flow Cytometer. Unstained and secondary antibody alone controls were also tested for all cell lines. The results were analyzed using ForeCyt® (IntelliCyt®) software to determine the geometric means of fluorescence for viable cells.

[2] = biological target: T2, human gp130 expressed endogenously on …; assay: cell-based or functional assay
[3] = biological target: T2, human gp130 expressed endogenously on …; assay: FACS, 10 nM Ab pre-bound to 1 uM hGP130.mmh, IMR-32/Stat3-luc cells
Description: as §1, §2

Binder	MFI - Normalized to Unstained Control [1]	% inhibition; CNTF (20 pM) [2]	% inhibition; LIF (20 pM) [2]	% inhibition; OSM (100 pM) [2]	IC50 [M]; CNTF (20 pM) [2]	IC50 [M]; LIF (20 pM) [2]	IC50 [M]; OSM (100 pM) [2]	MFI - Normalized to Unstained Control [3]
B1	107 ratio	46%	52%	62%	> 1e-07 M	9e-09 M	> 5e-08 M	7 ratio
B2	159 ratio	95%			7.1e-10 M			8 ratio
B3	96 ratio	22%			> 1e-07 M			7 ratio
B4	74 ratio							8 ratio
B5	132 ratio							7 ratio
B6	92 ratio	62%	76%	82%	> 1e-08 M	> 1e-08 M	> 1e-08 M	7 ratio
B7	80 ratio			23%			> 1e-07 M	8 ratio
B8	91 ratio							7 ratio
B9	49 ratio							6 ratio
B10	81 ratio							8 ratio
B11	45 ratio							8 ratio
B12	121 ratio							7 ratio
B13	105 ratio	33%	40%	52%	> 1e-07 M	> 1e-07 M	> 5e-08 M	8 ratio
B14	75 ratio							7 ratio
B15	55 ratio							6 ratio
B16	53 ratio							5 ratio
B17	94 ratio							6 ratio
